The values that follow are results of earlier work, collected in patent US7745401B2, “Antifungal peptides and methods of use thereof” (The Board of Regents of the University of Oklahoma, priority 2005, dated 2010).

The data set relates to Salmonella typhimurium, Escherichia coli, and Pseudomonas aeruginosa. Conditions: Gram negative organisms; cited from earlier work.

B1: CAP37: cationic antimicrobial protein of Mr 37 kDa of the human neutrophil (protein)
chain: IVGGRKARPRQFPFLASIQNQGRHFCGGALIHARFVMTAASCFQSQNPGVSTVVLGAYDLRRRERQSRQTFSISSMSENGYDPQQNLNDLMLLQLDREANLTSSVTILPLPLQNATVEAGTRCQVAGWGSQRSGGRLSRFPRFVNVTVTPEDQCRPNNVCTGVLTRRGGICNGDGGTPLVCEGLAHGVASFSLGPCGRGPDFFTRVALFRDWIDGVLNNPGP
B1: the bactericidal activity result is reported as “strong bactericidal activity”.
